Results from article PMC2756588.

T1: Pin3, Q06449
T1 sequence (Q06449 53-122, looked up): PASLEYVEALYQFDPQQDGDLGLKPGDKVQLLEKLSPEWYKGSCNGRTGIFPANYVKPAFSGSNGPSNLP

T2: Sla1-3, P32790
T2 sequence (P32790 344-424, looked up): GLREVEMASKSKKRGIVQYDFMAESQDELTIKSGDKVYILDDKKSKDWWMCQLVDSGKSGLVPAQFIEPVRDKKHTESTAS

T3: Lsb4, P32793
T3 sequence (P32793 402-468, looked up): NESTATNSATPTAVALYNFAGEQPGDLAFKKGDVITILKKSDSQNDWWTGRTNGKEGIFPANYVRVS

T4: Bzz1-2, P38822
T4 sequence (P38822 568-633, looked up): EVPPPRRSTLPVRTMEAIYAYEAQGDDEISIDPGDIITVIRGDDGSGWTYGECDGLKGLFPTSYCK

T5: Abp1, P15891
T5 sequence (P15891 535-592, looked up): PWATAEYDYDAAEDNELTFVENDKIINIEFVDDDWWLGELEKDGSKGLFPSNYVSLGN

T6: Boi2, P39969
T6 sequence (P39969 32-116, looked up): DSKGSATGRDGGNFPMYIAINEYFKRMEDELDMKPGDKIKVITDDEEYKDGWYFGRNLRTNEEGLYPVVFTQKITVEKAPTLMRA

T7: Bud14, P27637
T7 sequence (P27637 247-328, looked up): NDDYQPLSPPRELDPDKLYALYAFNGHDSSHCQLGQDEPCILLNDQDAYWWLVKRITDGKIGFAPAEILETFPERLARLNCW

T8: Sla1-2, P32790
T8 sequence (P32790 60-140, looked up): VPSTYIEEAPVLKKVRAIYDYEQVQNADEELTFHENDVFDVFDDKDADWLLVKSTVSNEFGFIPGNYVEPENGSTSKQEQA

T9: Lsb1, P53281
T9 sequence (P53281 45-122, looked up): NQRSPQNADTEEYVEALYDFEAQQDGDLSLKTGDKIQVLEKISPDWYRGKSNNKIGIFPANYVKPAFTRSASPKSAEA

T10: Nbp2, Q12163
T10 sequence (Q12163 103-180, looked up): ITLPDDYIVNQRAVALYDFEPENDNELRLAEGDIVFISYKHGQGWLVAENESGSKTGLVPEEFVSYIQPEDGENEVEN

T11: Cyk3, Q07533
T11 sequence (Q07533 1-83, looked up): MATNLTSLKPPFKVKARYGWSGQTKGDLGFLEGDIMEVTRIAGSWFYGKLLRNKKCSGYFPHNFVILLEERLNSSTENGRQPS

T12: Pex13, P80667
T12 sequence (P80667 295-386, looked up): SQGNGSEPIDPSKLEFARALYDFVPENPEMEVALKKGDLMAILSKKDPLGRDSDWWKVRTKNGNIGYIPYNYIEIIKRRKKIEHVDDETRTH

T13: Boi1, P38041
T13 sequence (P38041 1-86, looked up): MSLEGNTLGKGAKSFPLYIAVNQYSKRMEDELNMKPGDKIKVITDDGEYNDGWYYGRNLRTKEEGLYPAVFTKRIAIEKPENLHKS

T14: Hse1, P38753
T14 sequence (P38753 208-285, looked up): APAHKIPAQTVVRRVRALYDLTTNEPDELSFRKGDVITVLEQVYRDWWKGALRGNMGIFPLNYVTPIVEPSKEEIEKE

T15: Lsb3, P43603
T15 sequence (P43603 385-451, looked up): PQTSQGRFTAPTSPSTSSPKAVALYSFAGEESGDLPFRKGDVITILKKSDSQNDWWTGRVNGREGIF

T16: Myo5, Q04439
T16 sequence (Q04439 1072-1160, looked up): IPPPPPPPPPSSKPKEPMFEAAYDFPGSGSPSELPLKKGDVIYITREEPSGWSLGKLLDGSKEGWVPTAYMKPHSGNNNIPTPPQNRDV

T17: Bbc1, P47068
T17 sequence (P47068 1-78, looked up): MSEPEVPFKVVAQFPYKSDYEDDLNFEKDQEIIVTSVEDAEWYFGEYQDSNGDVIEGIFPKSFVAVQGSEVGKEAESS

T18: Cdc25, P04821
T18 sequence (P04821 50-136, looked up): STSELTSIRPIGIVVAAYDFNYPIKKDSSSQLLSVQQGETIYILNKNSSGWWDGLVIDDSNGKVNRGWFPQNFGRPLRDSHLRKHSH

T19: Hof1, Q05080
T19 sequence (Q05080 590-669, looked up): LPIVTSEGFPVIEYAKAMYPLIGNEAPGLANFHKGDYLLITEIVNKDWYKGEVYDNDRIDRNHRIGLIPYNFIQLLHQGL

T20: Bzz1-1, P38822
T20 sequence (P38822 478-572, looked up): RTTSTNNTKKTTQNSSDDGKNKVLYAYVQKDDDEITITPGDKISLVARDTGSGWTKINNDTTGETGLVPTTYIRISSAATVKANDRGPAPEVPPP

T21: Fus1, P11710
T21 sequence (P11710 432-512, looked up): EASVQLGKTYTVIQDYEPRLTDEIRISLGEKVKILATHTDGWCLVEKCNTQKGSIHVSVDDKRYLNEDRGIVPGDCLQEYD

B1: unnamed (peptide)
chain: QRKSLRRPTLSKPAV
B2: unnamed (peptide)
chain: TIRRRAPLSLLESHT
B3: unnamed (peptide)
chain: RMVRRRPLRVQFSAR

Target: Bem1-2, P29366
Assay: SPOT array
Details: median of control spots 4347

Bem1-2, P29366, sequence (P29366 139-227): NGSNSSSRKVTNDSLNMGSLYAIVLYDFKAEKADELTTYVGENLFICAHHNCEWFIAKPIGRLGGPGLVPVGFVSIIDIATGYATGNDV

In order of rising SPOT intensity:
1. B1  1
2. B2  4
3. B3  27

Target: T1, Pin3, Q06449
Assay: SPOT array
Details: median of control spots 2171

In order of falling SPOT intensity:
1. B3  70
2. B2  11
3. B1  9

Target: T2, Sla1-3, P32790
Assay: SPOT array
Details: median of control spots 5475

In order of falling SPOT intensity:
1. B3  128
2. B2  38
3. B1  22

Target: T3, Lsb4, P32793
Assay: SPOT array
Details: median of control spots 397

In order of rising SPOT intensity:
1. B2  1
2. B1  3
3. B3  25

Target: T4, Bzz1-2, P38822
Assay: SPOT array
Details: median of control spots 4538

In order of falling SPOT intensity:
1. B1  16
2. B3  16
3. B2  8

Target: T5, Abp1, P15891
Assay: SPOT array
Details: median of control spots 935

In order of falling SPOT intensity:
1. B3  270
2. B1  78
3. B2  46

Target: T6, Boi2, P39969
Assay: SPOT array
Details: median of control spots 1161

In order of rising SPOT intensity:
1. B1  0
2. B2  2
3. B3  12

Target: T7, Bud14, P27637
Assay: SPOT array
Details: median of control spots 956

In order of falling SPOT intensity:
1. B3  36
2. B2  13
3. B1  2

Target: T8, Sla1-2, P32790
Assay: SPOT array
Details: median of control spots 712

In order of falling SPOT intensity:
1. B3  37
2. B1  3
3. B2  1

Target: T9, Lsb1, P53281
Assay: SPOT array
Details: median of control spots 388

In order of falling SPOT intensity:
1. B3  60
2. B1  32
3. B2  29

Target: T10, Nbp2, Q12163
Assay: SPOT array
Details: median of control spots 357

In order of rising SPOT intensity:
1. B1  5
2. B2  11
3. B3  104

Target: T11, Cyk3, Q07533
Assay: SPOT array
Details: median of control spots 1451

In order of falling SPOT intensity:
1. B3  12
2. B1  4
3. B2  3

Target: T12, Pex13, P80667
Assay: SPOT array
Details: median of control spots 1341

In order of rising SPOT intensity:
1. B1  3
2. B2  3
3. B3  17

Target: Sho1, P40073
Assay: SPOT array
Details: median of control spots 1148

Sho1, P40073, sequence (P40073 287-367): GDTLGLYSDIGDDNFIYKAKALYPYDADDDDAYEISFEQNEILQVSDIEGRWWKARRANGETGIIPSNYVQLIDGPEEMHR

In order of rising SPOT intensity:
1. B2  52
2. B1  116
3. B3  259

Target: T13, Boi1, P38041
Assay: SPOT array
Details: median of control spots 1162

In order of rising SPOT intensity:
1. B2  1
2. B1  2
3. B3  14

Target: T14, Hse1, P38753
Assay: SPOT array
Details: median of control spots 1727

In order of rising SPOT intensity:
1. B1  10
2. B2  16
3. B3  41

Target: GST
Assay: SPOT array
Details: median of control spots 978

In order of falling SPOT intensity:
1. B3  9
2. B1  6
3. B2  1

Target: Bem1-1, P29366
Assay: SPOT array
Details: median of control spots 4282

Bem1-1, P29366, sequence (P29366 55-141): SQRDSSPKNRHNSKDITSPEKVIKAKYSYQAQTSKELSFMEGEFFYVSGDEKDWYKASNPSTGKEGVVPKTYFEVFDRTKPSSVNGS

In order of falling SPOT intensity:
1. B3  6
2. B2  2
3. B1  0

Target: T15, Lsb3, P43603
Assay: SPOT array
Details: median of control spots 406

In order of rising SPOT intensity:
1. B2  0
2. B1  3
3. B3  35

Target: T16, Myo5, Q04439
Assay: SPOT array
Details: median of control spots 471

In order of rising SPOT intensity:
1. B2  0
2. B1  3
3. B3  10

Target: T17, Bbc1, P47068
Assay: SPOT array
Details: median of control spots 796

In order of falling SPOT intensity:
1. B3  235
2. B1  37
3. B2  15

Target: T18, Cdc25, P04821
Assay: SPOT array
Details: median of control spots 969

In order of falling SPOT intensity:
1. B3  94
2. B2  13
3. B1  7

Target: Rvs167, P39743
Assay: SPOT array
Details: median of control spots 2707

Rvs167, P39743, sequence (P39743 419-482): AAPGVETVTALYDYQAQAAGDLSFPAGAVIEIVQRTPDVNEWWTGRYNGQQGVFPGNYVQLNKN

In order of falling SPOT intensity:
1. B2  3
2. B3  3
3. B1  0

Target: T19, Hof1, Q05080
Assay: SPOT array
Details: median of control spots 4086

In order of falling SPOT intensity:
1. B3  10
2. B1  4
3. B2  4

Target: T20, Bzz1-1, P38822
Assay: SPOT array
Details: median of control spots 4446

In order of rising SPOT intensity:
1. B2  3
2. B1  4
3. B3  4

Target: Myo3, P36006
Assay: SPOT array
Details: median of control spots 468

In order of falling SPOT intensity:
1. B3  50
2. B1  10
3. B2  0

Target: T21, Fus1, P11710
Assay: SPOT array
Details: median of control spots 1200

In order of falling SPOT intensity:
1. B3  92
2. B2  3
3. B1  2
